“And” between values parts separate entries of the source, which are not always exact repeats. Equal entries are not always repeated.

The test has as its target TrkB receptor on rat C6 glioma cells (rat, UniProt Q63604 32-821). Nature of the test: cell-based or functional assay.

Sequence of TrkB receptor on rat C6 glioma cells (Q63604 32-821): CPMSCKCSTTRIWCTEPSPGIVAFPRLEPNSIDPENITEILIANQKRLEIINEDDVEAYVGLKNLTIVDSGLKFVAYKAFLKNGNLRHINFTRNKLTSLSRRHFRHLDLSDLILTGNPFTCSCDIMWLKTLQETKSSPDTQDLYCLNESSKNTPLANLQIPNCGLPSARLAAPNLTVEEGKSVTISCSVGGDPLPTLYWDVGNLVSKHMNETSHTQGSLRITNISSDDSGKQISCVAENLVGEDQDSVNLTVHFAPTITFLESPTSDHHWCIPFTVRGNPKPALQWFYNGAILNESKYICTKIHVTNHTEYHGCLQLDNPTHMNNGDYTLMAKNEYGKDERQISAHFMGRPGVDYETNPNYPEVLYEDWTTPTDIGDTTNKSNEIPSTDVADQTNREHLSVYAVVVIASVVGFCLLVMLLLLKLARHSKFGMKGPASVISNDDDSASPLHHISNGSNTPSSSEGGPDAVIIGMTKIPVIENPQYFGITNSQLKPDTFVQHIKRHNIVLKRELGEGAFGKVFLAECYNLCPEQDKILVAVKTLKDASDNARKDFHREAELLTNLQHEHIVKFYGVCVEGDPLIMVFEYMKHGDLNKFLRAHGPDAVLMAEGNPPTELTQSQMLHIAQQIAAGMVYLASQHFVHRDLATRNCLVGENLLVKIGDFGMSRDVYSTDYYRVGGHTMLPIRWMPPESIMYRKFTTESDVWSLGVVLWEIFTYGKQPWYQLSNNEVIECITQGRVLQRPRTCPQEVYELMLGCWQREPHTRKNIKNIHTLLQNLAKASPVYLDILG

B1: recombinant human brain-derived neurotrophic factor (BDNF) (ligand)
chain: HSDPARRGELSVCDSISEWVTAADKKTAVDMSGGTVTVLEKVPVSKGQLKQYFYETKCNPMGYTKEGCRGIDKRHWNSQCRTTQSYVRALTMDSKKRIGWRFIRIDTSCVCTLTIKRGR
For the molecule B1, the “EC50, concentration of rhBDNF required to induce 50% proliferation of C6 cells (MTS assay, 48h)” value is ~3 µg/mL and ~0.11 µM.
